Blank lines part the entries; values can stand above or below the molecule they belong to.
Experiments:
[1] = target: T1, catalytic core of human ATL1 WT / N417ins (Homo sapiens, UniProt Q8WXF7); assay: limited proteolysis (proteinase K) protection; assay type: binding; conditions: 2 mM GDP; MgCl2, pH 7.5; on ice
T1 construct: catalytic core (G + middle domains), WT residues 1-449 (N417ins 1-450), C-terminal His10 tag kept, E. coli BL21(DE3)
T1 sequence (Q8WXF7 1-449): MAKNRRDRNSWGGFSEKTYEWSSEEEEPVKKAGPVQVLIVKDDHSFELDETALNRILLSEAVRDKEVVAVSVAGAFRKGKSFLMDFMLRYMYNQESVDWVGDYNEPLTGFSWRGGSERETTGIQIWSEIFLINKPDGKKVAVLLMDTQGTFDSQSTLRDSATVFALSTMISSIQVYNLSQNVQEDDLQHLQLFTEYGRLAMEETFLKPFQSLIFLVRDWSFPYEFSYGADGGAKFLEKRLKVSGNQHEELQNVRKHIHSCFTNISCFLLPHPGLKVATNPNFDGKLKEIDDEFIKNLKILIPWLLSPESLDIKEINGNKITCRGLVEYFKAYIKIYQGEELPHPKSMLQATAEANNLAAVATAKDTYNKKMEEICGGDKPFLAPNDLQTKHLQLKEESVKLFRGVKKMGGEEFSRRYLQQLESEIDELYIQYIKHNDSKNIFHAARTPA

[2] = target: T2, catalytic core of human ATL1 WT / N417ins (Homo sapiens, UniProt Q8WXF7); assay: SEC-MALS, nucleotide-dependent dimerization; assay type: binding; conditions: 2 mM GppNHp; 4 mM MgCl2, pH 7.5; 50 μM protein
T2 construct: catalytic core (G + middle domains), WT residues 1-449 (N417ins 1-450), C-terminal His10 tag kept, E. coli BL21(DE3)
T2 sequence (Q8WXF7 with tags, fused parts or gaps INS416N): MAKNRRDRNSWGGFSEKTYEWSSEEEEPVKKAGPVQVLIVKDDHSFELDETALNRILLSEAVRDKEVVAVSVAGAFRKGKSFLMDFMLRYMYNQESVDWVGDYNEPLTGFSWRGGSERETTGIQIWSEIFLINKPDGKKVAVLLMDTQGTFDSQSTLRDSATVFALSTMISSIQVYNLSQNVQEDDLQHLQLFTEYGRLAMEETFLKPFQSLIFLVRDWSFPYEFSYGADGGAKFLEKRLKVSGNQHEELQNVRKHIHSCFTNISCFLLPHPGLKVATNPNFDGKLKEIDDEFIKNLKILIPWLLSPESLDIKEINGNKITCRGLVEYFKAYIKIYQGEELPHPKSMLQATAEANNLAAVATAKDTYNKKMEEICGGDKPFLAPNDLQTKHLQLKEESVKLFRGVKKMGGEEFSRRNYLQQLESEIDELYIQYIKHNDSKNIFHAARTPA

[3] = target: T1, catalytic core of human ATL1 WT / N417ins; assay: SEC-MALS, nucleotide-dependent dimerization; assay type: binding; conditions: 2 mM GppNHp; 4 mM MgCl2, pH 7.5; 50 μM protein; remark: listed apart in the source
[4] = target: ATL1 N417ins catalytic core, G domain FRET construct; assay: intermolecular FRET (G domain FRET); conditions: equilibrated for 1 h before measurement, read off a plot
[5] = target: ATL1 N417ins catalytic core C375A K400C, labelled on the middle domain with AlexaFluor-488 or AlexaFluor-647; assay: intermolecular FRET (middle domain FRET); conditions: equilibrated for 1 h before measurement, read off a plot
[6] = target: the molecule itself; assay: SEC-MALS; 50 μM protein loaded, preincubated with 2 mM GppNHp; Superdex Increase 200 10/300 GL; 25 mM Tris-HCl pH 7.5, 100 mM NaCl, 2 mM EGTA, 4 mM MgCl2
[7] = apo (no nucleotide), parent: est. 0.0083

Molecule: Nc1nc2c(ncn2[C@@H]2O[C@H](COP(=O)(O)OP(=O)(O)O)[C@@H](O)[C@H]2O)c(=O)[nH]1 [GDP]
- limited proteolysis (proteinase K) protection [1]: when bound to GDP, the WT protein is largely protected from degradation

Molecule: Nc1nc2c(ncn2[C@@H]2O[C@H](COP(=O)(O)OP(=O)(O)NP(=O)(O)O)[C@@H](O)[C@H]2O)c(=O)[nH]1 [GppNHp]
- SEC-MALS, nucleotide-dependent dimerization [2]: Only a minor fraction of the mutant protein eluted as a monomer upon incubation with GppNHp
- SEC-MALS, nucleotide-dependent dimerization [3]: dimerized in the presence of GppNHp and GDP•AlF4^−

- response ([4]; GDP, parent: est. 0.014): 0.011
- response ([4]; GDP•AlF4-, parent: est. 0.076): 0.078
- response [4, 7]: 0.009
Molecule: ATL1 WT catalytic core, G domain FRET construct N417ins

- response ([5]; GDP, parent: est. 0.0098): 0.011
- response ([5]; GDP•AlF4-, parent: est. 0.061): 0.066
- response [5, 7]: 0.009
Molecule: ATL1 WT catalytic core, middle domain FRET construct N417ins

B1: human ATL1 N417ins catalytic core (residues 1–450) (domain or fragment, UniProt Q8WXF7-1 1-450, looked up)
chain: MAKNRRDRNSWGGFSEKTYEWSSEEEEPVKKAGPVQVLIVKDDHSFELDETALNRILLSEAVRDKEVVAVSVAGAFRKGKSFLMDFMLRYMYNQESVDWVGDYNEPLTGFSWRGGSERETTGIQIWSEIFLINKPDGKKVAVLLMDTQGTFDSQSTLRDSATVFALSTMISSIQVYNLSQNVQEDDLQHLQLFTEYGRLAMEETFLKPFQSLIFLVRDWSFPYEFSYGADGGAKFLEKRLKVSGNQHEELQNVRKHIHSCFTNISCFLLPHPGLKVATNPNFDGKLKEIDDEFIKNLKILIPWLLSPESLDIKEINGNKITCRGLVEYFKAYIKIYQGEELPHPKSMLQATAEANNLAAVATAKDTYNKKMEEICGGDKPFLAPNDLQTKHLQLKEESVKLFRGVKKMGGEEFSRRNYLQQLESEIDELYIQYIKHNDSKNIFHAARTPAT
notes: atlastin-1 (ATL1/SPG3A), human, catalytic core with the patient's in-frame insertion of an asparagine between R416 and Y417; residues 1-450. numbers count on: the mutant protein with the extra residue (1-449 of the wild type plus N417); pET21 vector; construct for enzyme assays, SEC-MALS and tethering; Theoretical monomer mass 52.9 kDa; also called N417ins mutant protein; …
- stoichiometry N [6]: 2

B2: human ATL1 WT catalytic core (residues 1–449) (domain or fragment, UniProt Q8WXF7-1 1-449, looked up)
chain: T1 sequence (Q8WXF7 1-449)
notes: atlastin-1 (ATL1/SPG3A), human, catalytic core of G and middle domains, residues 1-449; pET21 vector; Monomer without nucleotide or with GDP, dimer with GppNHp or GDP•AlF4-; Theoretical monomer mass 52.8 kDa; also called atlastin-1; SPG3A; source: E. coli BL21(DE3), purified (Ni-NTA, desalting, S200 gel filtration); not shown: His10, C-terminal, kept
- stoichiometry N [6]: 2
